Patent US20250163116A1, “NEW METHOD TO TREAT INFECTIOUS DISEASES” (INSERM (INSTITUT NATIONAL DE LA SANTÉ ET DE LA RECHERCHE …, priority 2022, published 2025)

System: HDMECs infected with Nm 2C4.3
Assay: Integrity of HDMEC monolayers infected with N. meningitidis (VE-cadherin at intercellular junctions, immunofluorescence)
Type: cell-based, human
Conditions: 1 μg/mL added 30 min after initiation of Nm infection, 2 h 30
Procedure: FIG. 1. Exogenous ANGPTL4 exerts protective effects on dermal microvascular endothelial cells infected by N. meningitidis. A. HDMECs were infected with Nm 2C4.3 for 30 min and treated with 1 μg/mL of recombinant human ANGPTL4 for 2 h 30. Cells were fixed and stained for cellular actin, VE-cadherin and DAPI and analyzed by fluorescent microscopy. Quantifications of VE-cadherin enrichment at intercellular junctions and of intercellular spaces area were performed on 30 fields with Image J software. Kruskal-Wallis test ** P<0.001; P<0.0001. B. HDMEC were either uninfected or infected with N. meningitidis 2C4.3 for 30 min and treated with 1 μg mL−1 of recombinant human ANGPTL4, its N-terminal portion (nANGPTL4) or its C-terminal portion (cANGPTL4) for 2 h 30. Caspase-3/7 reagent was added to detect apoptosis in real time over 9 h using the IncuCyte® Live-Cell Analysis System
FIG. 2: Vascular protection is conferred by the N-terminal part of ANGPTL4. A, Schematic representation of ANGPTL4 structure. ANGPTL4 contains a N-terminal portion (nANGPTL4, aa 26-164) linked to a C-terminal portion (cANGPTL4, aa 164-406) by a cleavable linker. nANGPTL4 contains a highly conserved lipoprotein lipase (LPL) binding domain (aa 44-55), two cysteines on position 76 and 80 involved in protein oligomerization and a coiled-coil domain (aa 100-143). The C-terminal portion encodes a fibrinogen-like domain. B, HDMECs were infected with Nm 2C4.3 for 30 min and treated with 1 μg/mL of recombinant human ANGPTL4, nANGPTL4 or cANGPTL4 for 2 h 30. Cells were fixed and stained for cellular actin, VE-cadherin and DAPI and analyzed by fluorescent microscopy. B. Quantifications of VE-cadherin enrichment at intercellular junctions and of intercellular spaces area were performed on 30 fields with Image J software. Kruskal-Wallis test ** P<0.001, *** P<0.0001 of four independent experiments performed in triplicate.
FIG. 3: Vascular protection is conferred by a novel binding motif (aa 66-80) present in the N-terminal part of ANGPTL4. A, the indicated peptides were derived from nANGPTL4. B, HDMECs were infected with Nm 2C4.3 for 30 min and treated with 1 μg/mL of each peptides. Quantifications of VE-cadherin enrichment at intercellular junctions was performed on 30 fields with Image J software.
FIG. 4: Vascular protection is conferred by interaction of nANGPTL4 with Syndecan-4. A, HDMECs were infected with Nm 2C4.3 for 30 min and treated with 1 μg/mL of recombinant human ANGPTL4, nANGPTL4 or cANGPTL4 in the absence or in the presence of anti-SDC4 antibody for 2 h 30. Cells were fixed and stained for cellular actin, VE-cadherin and DAPI and analysed by fluorescent microscopy. Quantifications of VE-cadherin enrichment at intercellular junctions and of intercellular spaces area were performed on 30 fields with Image J software. Kruskal-Wallis test ** P<0.001, **** P<0.00001, ns1 P=0.2172; ns2 P>0.999 of four independent experiments performed in triplicate. B, HDMECs were transfected with small interfering RNA (siRNA) against SDC4 or non-targeting siRNA controls for 48 h, infected with Nm 2C4.3 for 30 min and treated with 1 μg/mL of recombinant human ANGPTL4, for 2 h 30. Quantifications of VE-cadherin enrichment at intercellular junctions and of intercellular spaces area were performed on 30 fields with Image J software. Kruskal-Wallis test ** P<0.001, *** P<0.0001, of two independent experiments performed in triplicate.
The day of infection, a suspension of the bacteria from an overnight culture on GCB agar plate was adjusted to OD600=0.05 and incubated for 2 h at 37° C. in a pre-warmed cell culture medium. Cells were infected with bacteria at a multiplicity of infection (MOI) of 100 bacteria per cell (OD=0.1) for 30 minutes, washed twice to remove non-adherent bacteria and infection was allowed to proceed for various periods of time. Cells were then washed and fixed in 4% paraformaldehyde for immunofluorescence analysis. […]

Molecule | protective effect on monolayer integrity (adherens junctions, cell detachment) of infected HDMECs
ANGPTL4: Recombinant human ANGPTL4 (Angiopoietin-like 4), full length, SEQ ID NO: 1, purchased from R&D Systems (protein, listed as Homo sapiens) MSGAPTAGAALMLCAATAVLLSAQGGPVQSKSPRFASWDEMNVLAHGLLQLGQGLREHAERTRSQLSALERRLSACGSACQGTEGSTDLPLAPESRVDPEVLHSLQTQLKAQNSRIQQLFHKVAQQQRHLEKQHLRIQHLQSQFGLLDHKHLDHEVAKPARRKRLPEMAQPVDPAHNVSRLHRLPRDCQELFQVGERQSGLFEIQPQGSPPFLVNCKMTSDGGWTVIQRRHDGSVDFNRPWEAYKAGFGDPHGEFWLGLEKVHSITGDRNSRLAVQLRDWDGNAELLQFSVHLGGEDTAYSLQLTAPVAGQLGATTVPPSGLSVPFSTWDQDHDLRRDKNCAKSLSGGWWFGTCSHSNLNGQYFRSIPQQRQKLKKGIFWKTWRGRYYPLQATTMLIQPMAAEAAS | entirely preserved the integrity of this monolayer
nANGPTL4: N-terminal fragment of ANGPTL4, aa 26-164, SEQ ID NO: 24, purchased from R&D Systems (protein, nANGPTL4) GPVQSKSPRFASWDEMNVLAHGLLQLGQGLREHAERTRSQLSALERRLSACGSACQGTEGSTDLPLAPESRVDPEVLHSLQTQLKAQNSRIQQLFHKVAQQQRHLEKQHLRIQHLQSQFGLLDHKHLDHEVAKPARRK | sufficient to maintain cell monolayer integrity upon infection
cANGPTL4: C-terminal fragment of ANGPTL4, aa 164-406, fibrinogen-like domain, purchased from R&D Systems (protein, listed as Homo sapiens) RLPEMAQPVDPAHNVSRLHRLPRDCQELFQVGERQSGLFEIQPQGSPPFLVNCKMTSDGGWTVIQRRHDGSVDFNRPWEAYKAGFGDPHGEFWLGLEKVHSITGDRNSRLAVQLRDWDGNAELLQFSVHLGGEDTAYSLQLTAPVAGQLGATTVPPSGLSVPFSTWDQDHDLRRDKNCAKSLSGGWWFGTCSHSNLNGQYFRSIPQQRQKLKKGIFWKTWRGRYYPLQATTMLIQPMAAEAAS | no significant protective effect
